The target in one assay is T1, monkey EpCAM-GST (monkey, UniProt Q1WER1 24-265).
T1 construct: not shown: GST added to the C terminus (N5 vector)
T1 sequence: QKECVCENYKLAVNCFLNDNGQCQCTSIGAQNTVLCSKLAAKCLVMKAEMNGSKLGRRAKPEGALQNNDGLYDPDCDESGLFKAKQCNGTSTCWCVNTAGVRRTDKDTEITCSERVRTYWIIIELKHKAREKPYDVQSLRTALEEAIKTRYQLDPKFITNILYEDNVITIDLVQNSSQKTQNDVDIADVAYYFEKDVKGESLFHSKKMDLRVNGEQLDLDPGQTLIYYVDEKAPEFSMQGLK
Nature of the assay: phage ELISA on immobilized EpCAM-GST. In general terms: An ELISA detects its analyte on a solid surface through an enzyme-linked reagent.

The target of a further assay is T2, human EpCAM-GST (human, UniProt P16422 24-265).
T2 construct: also called soluble human EpCAM antigen; not shown: GST added to the C terminus (N5 vector)
T2 sequence: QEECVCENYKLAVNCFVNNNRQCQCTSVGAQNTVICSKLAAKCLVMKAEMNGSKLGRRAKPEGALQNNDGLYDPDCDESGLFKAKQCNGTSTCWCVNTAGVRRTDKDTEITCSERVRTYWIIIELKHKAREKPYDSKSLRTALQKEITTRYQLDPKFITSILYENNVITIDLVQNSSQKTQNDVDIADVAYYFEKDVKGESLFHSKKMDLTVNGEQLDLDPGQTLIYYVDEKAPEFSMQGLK
Nature of the assay: phage ELISA on immobilized EpCAM-GST.

A further assay deals with T3, mouse EpCAM-GST (mouse, UniProt Q99JW5 24-266).
T3 construct: not shown: GST added to the C terminus (N5 vector)
T3 sequence: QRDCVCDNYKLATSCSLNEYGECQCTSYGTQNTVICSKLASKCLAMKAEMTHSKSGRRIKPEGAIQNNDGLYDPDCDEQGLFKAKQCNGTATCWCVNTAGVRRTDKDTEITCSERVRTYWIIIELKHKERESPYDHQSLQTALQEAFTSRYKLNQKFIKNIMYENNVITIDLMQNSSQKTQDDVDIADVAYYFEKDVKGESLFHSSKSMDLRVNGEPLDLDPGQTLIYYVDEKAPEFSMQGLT
The assay is described as follows: phage ELISA on immobilized EpCAM-GST.

The target of the next assay is T4, human CD40-GST (human, UniProt P25942 21-193).
T4 construct: also called soluble human CD40 antigen; not shown: GST region of the N5 vector
The assay is described as follows: phage ELISA on immobilized CD40-GST. As to the method: (§1) In the ELISA, MAXISORP (manufactured by NUNC, Inc.) in which the human or monkey CD40-GST in Example 1 was immobilized on each well and a portion to which the human or monkey CD40-GST is not bound was blocked using SuperBlock Blockig Buffer (manufactured by Thermo Fisher, Inc.) was used. To each well, each phage clone was added and reacted at room temperature for 30 minutes, and thereafter, each well was washed 3 times with PBS-T.
(§2) Subsequently, an anti-M13 antibody (manufactured by GE Healthcare, Inc.) labeled with horseradish peroxidase was diluted by 5000 times with PBS-T containing 10% Block Ace (manufactured by Dainippon Pharmaceutical Co., Ltd.), and the resultant was added in an amount of 50 μL to each well, and incubated at room temperature for 30 minutes. After the microplate was washed four times with PBS-T, a TMB chromogenic substrate solution (manufactured by DAKO, Inc.) was added in an amount of 50 μL to each well and incubated at room temperature for 10 minutes.

The next assay concerns the target T5, monkey CD40-GST (monkey, UniProt P25942 21-193 (human entry)).
T5 construct: not shown: GST region of the N5 vector
T5 chain: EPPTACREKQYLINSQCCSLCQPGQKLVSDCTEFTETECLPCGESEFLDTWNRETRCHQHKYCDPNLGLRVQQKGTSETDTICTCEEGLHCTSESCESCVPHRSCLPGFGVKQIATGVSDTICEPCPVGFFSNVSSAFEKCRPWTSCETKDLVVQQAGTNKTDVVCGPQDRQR
The assay is described as follows: phage ELISA on immobilized CD40-GST. As to the method:
as §1, §2

For assay [1], the target named is T6, human CD40 on Ramos cells (human, UniProt P25942 21-277).
T6 construct: Native CD40 of Ramos cells (Burkitt's lymphoma)
Nature of the assay: flow cytometry on Ramos cells, detection with goat F(ab')2 anti-human IgG R-PE [A]. As for the experimental part:
(§3) Ramos cells were suspended in Staining Buffer (SB) that is D-PBS(−) containing 0.1% NaN₃ and 1% FBS at a cell density of 1×10⁶ cells/mL, and the suspension was dispensed in a 96-well round bottom plate (manufactured by Falcon, Inc.) at 100 μL/well.
(§4) After further centrifugation (2000 rpm, 4° C., 2 minutes), the supernatant was removed, the resulting pellet was washed three times with 200 μL/well of SB, and thereafter, 1 μg/mL of Goat F(ab′)₂ Anti-Human IgG (γ chain specific) R-phycoerythrin (R-PE) Conjugate (manufactured by Southern Biotech, Inc.) was added at 50 μL/well, and the resultant was incubated for 30 minutes at ice temperature. After washing twice with SB, the cells were suspended in 200 μL/well of SB, and the fluorescence intensity of each cell was measured using a flow cytometer FACSCANTO II (manufactured by Becton, Dickinson and Company).

The target of assay [2] is T7, human EpCAM on human EpCAM/HEK 293 cells and Colo 205 cells (human, UniProt P16422 24-314).
T7 construct: Colo 205 cells carry native EpCAM; also called hEpCAM
T7 sequence: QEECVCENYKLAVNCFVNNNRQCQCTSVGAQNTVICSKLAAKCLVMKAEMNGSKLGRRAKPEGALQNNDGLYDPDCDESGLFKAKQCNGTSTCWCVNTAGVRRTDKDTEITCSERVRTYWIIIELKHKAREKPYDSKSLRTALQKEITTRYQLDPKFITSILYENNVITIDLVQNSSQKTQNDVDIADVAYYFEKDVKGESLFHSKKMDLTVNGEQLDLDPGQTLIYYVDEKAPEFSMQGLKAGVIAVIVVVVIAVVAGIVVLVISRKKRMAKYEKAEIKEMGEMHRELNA
The assay is described as follows: flow cytometry on Colo 205 cells and on human EpCAM/HEK 293 cells, antibody at 10 ug/mL, detection with goat F(ab')2 anti-human IgG R-PE [B), (D]. As to the method:
as §3, §4
(§5) Similarly, Colo 205 cells, HEK 293 cells, and human EpCAM/HEK 293 cells were evaluated, respectively. As the negative control, IgG4 antibodies 5228P, L235E, and R409K mutants (hereinafter referred to as anti-DNP antibodies) produced according to the method described in Example 5 of WO 2006/033386 using a vector encoding VL and VH (GenBank accession No. VL U16688, VH U116687) of the 2,4-dinitrophenol (DNP) antibody described in Mol Immunol. 1996 June; 33 (9): 759-68 were used.

Another assay concerns the target T8, mouse CD40 (mouse, UniProt P27512 20-193, limits assumed).
T8 sequence (looked up): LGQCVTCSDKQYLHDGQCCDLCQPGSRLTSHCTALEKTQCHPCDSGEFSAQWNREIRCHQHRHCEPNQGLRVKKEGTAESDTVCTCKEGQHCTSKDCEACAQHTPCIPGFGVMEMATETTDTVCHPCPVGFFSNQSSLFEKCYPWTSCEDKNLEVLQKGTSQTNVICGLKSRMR
The assay is described as follows: not described.

In assay [3] the target is T7, human EpCAM on human EpCAM/HEK 293 …. The assay is described as follows: flow cytometry on Colo 205 cells and on human EpCAM/HEK 293 cells, detection with goat F(ab')2 anti-human IgG R-PE [B), (D]. As for the experimental part: as §3, §4, §5

B1: Epc112 phage clone (scFv, V domains shown)
VH: EVQLVQSGTEVKKPGASVKVSCRASGNTFTNYYIHWVRQAPGQGLEWMGIINPSGGATNYAQILQGRVTMTRDTSTSTVYMELSSLRSEDTAVYYCAGGGSAATFAYWGQGTLVTVSS
VL: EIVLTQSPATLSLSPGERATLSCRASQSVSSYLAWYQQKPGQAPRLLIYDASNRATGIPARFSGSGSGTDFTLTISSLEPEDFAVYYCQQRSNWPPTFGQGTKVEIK
Turning to B1, the binding result with monkey EpCAM-GST, with human EpCAM-GST and with mouse EpCAM-GST was “binds” in each case.

B2: R2089 phage clone (scFv, V domains shown)
VH: EVQLVQSGAEVKKPGASVKVSCKASGYSFTRYIMHWVRQAPGQRLEWMGWINAGNGNTKYSQKFQGRVTITRDTSANTAYMELSSLRSEDTAVYYCARDEPVAGSFFDYWGQGTLVTVSS
VL: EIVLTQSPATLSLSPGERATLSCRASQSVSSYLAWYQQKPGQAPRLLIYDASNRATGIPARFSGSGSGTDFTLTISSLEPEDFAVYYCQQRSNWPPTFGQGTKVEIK
As for B2, the binding result in the assay with human CD40-GST and in the assay with monkey CD40-GST was “binds” each time.

B3: Epc051 phage clone (scFv, V domains shown)
VH: EVQLVQSGAEVKKPGASVKVSCKASGYTFTSNYMHWVRQAPGQGLEWMGIINPSGGATSYAQKFQGRVTMTRDTSTSTVYMELSSLRSEDTAVYYCASGGYYGSVIMDVWGQGTLVTVSS
VL: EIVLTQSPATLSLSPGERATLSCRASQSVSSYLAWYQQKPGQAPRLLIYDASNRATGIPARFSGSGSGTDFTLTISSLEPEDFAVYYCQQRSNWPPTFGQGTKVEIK
For B3, the binding result with monkey EpCAM-GST, with human EpCAM-GST and with mouse EpCAM-GST was “binds” throughout.

B4: R2178 phage clone (scFv, V domains shown)
VH: QVQLQQWGAGLLKPSETLSLTCAVYGGSFSGYYWSWIRQSPGKGLEWIGEINHGGITNYNPSLKSRVTISVDTSKNQFSLKLGSVTAADTAVYYCARDNYYGSGSNDGVYQYYGIDVWGQGTTVTVSS
VL: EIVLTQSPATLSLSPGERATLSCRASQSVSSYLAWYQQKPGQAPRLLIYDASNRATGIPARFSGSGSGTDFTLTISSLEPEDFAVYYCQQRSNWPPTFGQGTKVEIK
B4: the binding result with human CD40-GST and with monkey CD40-GST was “binds” each time.

B5: anti-EpCAM monoclonal antibody 3622W94 (antibody, V domains shown)
VH: QVQLVQSGPEVKKPGASVKVSCKASGYTFTNYGMNWVRQAPGQGLEWMGWINTYTGEPTYGEDFKGRFAFSLDTSASTAYMELSSLRSEDTAVYFCARFGNYVDYWGQGSLVTVSS
VL: DIVMTQSPLSLPVTPGEPASISCRSSKNLLHSNGITYLYWYLQKPGQSPQLLIYQMSNLASGVPDRFSSSGSGTDFTLKISRVEAEDVGVYYCAQNLEIPRTFGQGTKVEIK
As for B5, the binding result in [1] is given as “no binding (tested: 10 ug/mL)”; in assay [2], “binds”.

B6: anti-CD40 monoclonal antibody 21.4.1 (antibody, V domains shown)
VH: not shown
VL: DIQMTQSPSSVSASVGDRVTITCRASQGIYSWLAWYQQKPGKAPNLLIYTASTLQSGVPSRFSGSGSGTDFTLTISSLQPEDFATYYCQQANIFPLTFGGGTKVQIK
notes: also called anti-CD40 agonistic antibody; CP870,893
As for B6, the values for the binding result (in the assay with mouse CD40; in assay [3]) were “no binding” and “no binding (tested: 10 ug/mL)”, respectively.

B7: Ep203 phage clone (scFv, V domains shown)
VH: EVQLVQSGAEVKKPGASVKVSCKASGFTFSSYYMHWVRQAPGQGLEWMGIVNPTGGATSYAQKFQGRVTMTRDTSTSTVYMELSSLRSEDTAVYYCAKHGYGASTLFDSWGQGTLVTVSS
VL: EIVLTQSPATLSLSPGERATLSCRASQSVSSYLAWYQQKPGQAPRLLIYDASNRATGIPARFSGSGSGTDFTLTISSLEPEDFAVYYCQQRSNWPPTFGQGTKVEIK
As for B7, the binding result with monkey EpCAM-GST, in the assay with human EpCAM-GST and in the assay with mouse EpCAM-GST was “binds” each time.

B8: R1066 phage clone (scFv, V domains shown)
VH: QVQLQQWGAGLLKPSETLSLTCAVYGGSFSGYYWSWIRQPPGKGLEWIGEINHGGITHYNPSLKSRVTISVDTSKNQFSLKLSSVTAADTAVYYCARDNYYGSGSYYKYDYYGMDVWGQGTTVTVSS
VL: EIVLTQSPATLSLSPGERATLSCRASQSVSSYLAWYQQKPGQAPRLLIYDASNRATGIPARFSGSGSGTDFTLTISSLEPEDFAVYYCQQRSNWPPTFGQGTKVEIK
Regarding B8, the binding result with human CD40-GST and with monkey CD40-GST was “binds” each time.

Source of the values: patent US20240059788A1 (Kyowa Kirin, published 2024).
